# Entries after “also recorded” stand apart in the source; their conditions may differ. Where a SMILES comes first, the peptide text is derived from it. [ ]: non-standard residue; d: D form. The star is where a group is joined. 5FAM = O=C1OC2(c3ccc(O)cc3Oc3cc(O)ccc32)c2ccc(C(=O)*)cc21; X1 = CN(C)c1ccc(N=Nc2ccccc2C(=O)*)cc1; AEEA = NCCOCCOCC(=O)O
# How the values were obtained:
# rhFAP = target: T1, rhFAP (Homo sapiens, UniProt Q12884); test: Probe cleavage by recombinant human FAP (fluorescence read); type: biochemical; conditions: for signal (relative fluorescence intensity) with rhFAP: comparison between probe iterations; for FAP specificity (over PREP): from recombinant enzyme assessment; for cleavage by rhFAP: probe 5 μM, enzyme 0.1 μg/ml, read 480/530 nm
# T1 sequence (Q12884 1-760): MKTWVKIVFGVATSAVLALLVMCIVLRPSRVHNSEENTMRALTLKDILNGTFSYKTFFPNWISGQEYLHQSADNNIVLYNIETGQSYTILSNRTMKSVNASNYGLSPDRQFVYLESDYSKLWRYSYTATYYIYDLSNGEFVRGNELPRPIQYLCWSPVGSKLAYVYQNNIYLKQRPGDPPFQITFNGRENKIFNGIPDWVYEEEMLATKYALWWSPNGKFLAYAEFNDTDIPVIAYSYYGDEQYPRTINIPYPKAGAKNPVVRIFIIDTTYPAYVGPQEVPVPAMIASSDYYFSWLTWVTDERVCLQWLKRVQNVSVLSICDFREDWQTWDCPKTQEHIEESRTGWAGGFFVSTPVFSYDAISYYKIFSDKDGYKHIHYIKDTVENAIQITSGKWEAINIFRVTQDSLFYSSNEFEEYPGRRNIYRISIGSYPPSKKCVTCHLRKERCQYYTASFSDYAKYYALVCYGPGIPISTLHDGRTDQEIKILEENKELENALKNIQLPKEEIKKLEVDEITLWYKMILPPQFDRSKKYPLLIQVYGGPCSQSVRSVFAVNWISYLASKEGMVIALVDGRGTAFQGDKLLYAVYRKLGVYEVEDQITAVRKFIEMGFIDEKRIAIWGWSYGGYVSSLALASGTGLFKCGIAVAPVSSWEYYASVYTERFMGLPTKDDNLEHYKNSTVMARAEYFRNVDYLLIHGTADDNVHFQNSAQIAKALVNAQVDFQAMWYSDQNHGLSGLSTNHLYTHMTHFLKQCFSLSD
# rhPREP = target: T2, rhPREP (Homo sapiens, UniProt P48147); test: Probe cleavage by recombinant human PREP; type: biochemical; conditions: probe 5 μM, enzyme 0.1 μg/ml, read 480/530 nm
# T2 sequence (P48147 1-710): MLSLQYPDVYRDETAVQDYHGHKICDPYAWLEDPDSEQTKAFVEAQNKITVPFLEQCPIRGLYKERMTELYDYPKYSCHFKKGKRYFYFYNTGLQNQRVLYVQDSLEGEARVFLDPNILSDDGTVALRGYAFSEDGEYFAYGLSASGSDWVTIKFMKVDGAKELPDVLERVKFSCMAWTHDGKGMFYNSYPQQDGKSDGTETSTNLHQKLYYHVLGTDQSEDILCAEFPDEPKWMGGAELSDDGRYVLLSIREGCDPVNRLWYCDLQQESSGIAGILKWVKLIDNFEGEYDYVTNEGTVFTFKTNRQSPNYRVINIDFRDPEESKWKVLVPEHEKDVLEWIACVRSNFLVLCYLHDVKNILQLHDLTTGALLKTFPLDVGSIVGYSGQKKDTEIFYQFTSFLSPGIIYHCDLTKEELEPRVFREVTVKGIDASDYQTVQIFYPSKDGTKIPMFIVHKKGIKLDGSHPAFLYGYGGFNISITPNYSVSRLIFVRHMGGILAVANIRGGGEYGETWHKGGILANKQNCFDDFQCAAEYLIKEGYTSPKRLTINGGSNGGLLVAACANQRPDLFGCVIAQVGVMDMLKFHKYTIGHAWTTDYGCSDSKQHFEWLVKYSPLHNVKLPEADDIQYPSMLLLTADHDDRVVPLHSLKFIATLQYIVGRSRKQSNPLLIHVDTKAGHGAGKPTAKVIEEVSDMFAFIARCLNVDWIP
# [1] = Toxicity in rats, intravenous (bolus) dosing for 7 days; type: in vivo; conditions: intravenous (bolus) injection of 0.1 mg for 7 days
# Procedure: The potential toxicity of the FAP probe was assessed by dosing rats with an intravenous (bolus) injection of 0.1 mg of the FAP3 probe for 7 days.
# rhDPPIV = rhDPPIV (Homo sapiens, UniProt P27487); test: Probe cleavage by recombinant human DPPIV (exopeptidase activity); type: biochemical; conditions: probe 5 μM, enzyme 0.1 μg/ml, read 480/530 nm
# [2] = system: cancer associated fibroblasts (CAFs) from NSCLC patient samples; test: Assessment on cancer associated fibroblasts (CAFs); type: cell-based, human; conditions: co-incubated with FAP3
# Procedure: CAFs were isolated from NSCLC patient samples as previously described methods known in the art. Briefly, tissue samples were minced with forceps and incubated for an hour in prewarmed RPMI media (Gibco) containing collagenase IV [2 mg/ml](Sigma) and DNase [0.2 mg/ml](Sigma). Samples were spun at 350 g for 5 minutes and red blood cells were lysed from samples using RBC lysis buffer (BioLegend) in 10 mls for 10 minutes. Following a further spin at 350 g for 5 minutes, cells were seeded in culture flasks in DMEM containing 10% FCS, 1% Penicillin-Streptomycin, 1% L-Glutamine and 10% Insulin Transferrin Selenium (ITS). 24 hours after seeding, non-adherent cells were washed from the flasks. Cells were maintained by standard cell culture methods and by passage 2, the predominant cell type was CAFs, assessed by flow cytometry markers and morphology. CAFs between passage 4-9 were used to assess FAP probes and confirmed to be FAP^hi by flow cytometry.
# CAFs were seeded into 96 well plates in a 100 μl media (complete DMEM as described above) at a density of 1×10^5 cells/ml to form a confluent monolayer within 24 hours. Wells containing cells had media removed and then were washed before buffer (DPBS)+/− inhibitors were added with the imaging probes. Immediately after adding imaging probes, the plate was transferred to the prewarmed spectrophotometer as above and read at 480/530 nm for one hour.
# [3] = system: NSCLC patient tissue samples; test: Fluorescence intensity and lifetime imaging (FLIM, KronoScan) of ex vivo NSCLC tissue; type: cell-based, human; conditions: VBP (1:1000) added with FAP3; listed as VBP
# Procedure: For imaging solutions, varying concentrations of rhFAP were prepared in blackened eppendorfs and FAP3 to a final concentration of 5 μm added and imaged as below. For biological specimens, NSCLC patient tissue samples from surgical resection were used fresh or snap frozen and stored at −80 until required. Small fragments (approx. 4 mm^3) incubated at 37° C. in a 96 well plate in phenyl-red free DMEM (Gibco) containing 10% FCS, 1% Penicillin-streptomycin and 1% L-Glutamine. For the inhibitor fragments VBP (1:1000) was added. Samples were then imaged using a clinically tractable novel fluorescence lifetime imaging system, KronoScan, with an imaging fibre providing a 400×400 um field of view. […] This spectrometer contains a 512 channel single photon avalanche diode (SPAD) sensor, allowing for the rapid collection of time resolved spectral fluorescence lifetime data. Fluorescence intensity and lifetime images were collected at 160×160 pixels over a 498-570 nm spectral range with an exposure time of 13 μs per pixel. […]
# For each condition the tumour samples were imaged using a fibre placed at the tip of the tissue (baseline), and then again at 10 minute intervals following the additions of equimolar concentrations of probe+/− Inhibitor. […] Each condition and time-point data for both fluorescence intensity and lifetime were collected. […]
# rhDPPIV, sequence (P27487 whole entry): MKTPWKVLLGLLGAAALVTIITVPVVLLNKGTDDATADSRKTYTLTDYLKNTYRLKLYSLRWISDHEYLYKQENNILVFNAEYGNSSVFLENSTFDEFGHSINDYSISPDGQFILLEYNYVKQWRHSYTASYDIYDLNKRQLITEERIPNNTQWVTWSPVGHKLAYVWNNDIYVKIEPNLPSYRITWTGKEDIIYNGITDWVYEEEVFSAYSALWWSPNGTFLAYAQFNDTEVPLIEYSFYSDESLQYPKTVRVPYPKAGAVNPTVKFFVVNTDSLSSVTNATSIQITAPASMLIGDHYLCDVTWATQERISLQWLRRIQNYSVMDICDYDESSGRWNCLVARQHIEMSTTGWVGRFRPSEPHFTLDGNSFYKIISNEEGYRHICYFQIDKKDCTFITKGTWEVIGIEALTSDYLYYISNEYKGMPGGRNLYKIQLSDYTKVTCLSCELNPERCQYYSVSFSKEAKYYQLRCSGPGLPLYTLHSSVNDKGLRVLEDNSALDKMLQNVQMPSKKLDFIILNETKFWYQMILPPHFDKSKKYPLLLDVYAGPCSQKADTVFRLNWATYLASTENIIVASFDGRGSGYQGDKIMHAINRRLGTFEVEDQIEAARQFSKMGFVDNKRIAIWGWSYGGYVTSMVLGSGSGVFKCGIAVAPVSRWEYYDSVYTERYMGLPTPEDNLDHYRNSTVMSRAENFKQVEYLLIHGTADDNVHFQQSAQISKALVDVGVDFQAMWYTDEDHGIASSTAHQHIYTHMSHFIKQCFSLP
Compound,signal (relative fluorescence intensity) with rhFAP (rhFAP),FAP specificity (over PREP) (rhFAP),cleavage by rhPREP (rhPREP),cleavage by rhFAP (rhFAP),also measured
Lys(MethylRed)-(β)Ala-Pro-Ser-Lys(5-FAM)-[Peg2-(D)Lys]3-NH2 [FAP2Fβ-Ala],reduced signal,FAP specificity over PREP,,,
Lys(MethylRed)-Ala-Pro-Ser-Lys(5-FAM)-[Peg2-(D)Lys]3-NH2 [FAP2AAla],,,is cleaved; also recorded: demonstrated cleavage by PREP,FAP activity was absent,
Lys(MethylRed)-(D)Ser-Pro-Ser-Lys(5-FAM)-[Peg2-(D)Lys]3-NH2 [FAP2CD-Ser],,demonstrates FAP specificity,without PREP cleavage,highest rate of cleavage,signal (relative fluorescence intensity) with rhFAP (rhFAP; listed as D-Ser): reduced signal; FAP specificity (over PREP) (rhFAP; listed as D-Ser): FAP specificity over PREP
"CC(C)[C@H](NC(=O)[C@@H](N)CCCCNC(=O)c1ccccc1N=Nc1ccc(N(C)C)cc1)C(=O)N[C@H](CO)C(=O)N1CCC[C@H]1C(=O)N[C@@H](CC(N)=O)C(=O)N[C@@H](CCC(N)=O)C(=O)NCC(=O)N[C@@H](CCCCNC(=O)c1ccc2c(c1)C(=O)OC21c2ccc(O)cc2Oc2cc(O)ccc21)C(=O)NCCOCCOCC(=O)N[C@H](CCCCN)C(=O)NCCOCCOCC(=O)N[C@H](CCCCN)C(=O)NCCOCCOCC(=O)N[C@H](CCCCN)C(N)=O [FAP3, Lys(MethylRed)-Val-(D)Ser-Pro-Asn-Gln-Gly-Lys(5-FAM)-[Peg2-(D)Lys]3-NH2] (H-K(X1)V[dS]PNQGK(5FAM)[AEEA][dK][AEEA][dK][AEEA][dK]-NH2)",,,,,"clinical signs [1]: no clinical signs; deaths [1]: no deaths; differences in body weights, body weight gains, food consumption, haematology, coagulation, clinical chemistry, organ weights and macroscopic and microscopic examinations ([1]; compared to a control group): no differences"
Lys(MethylRed)-(D)Thr-Pro-Ser-Lys(5-FAM)-[Peg2-(D)Lys]3-NH2 [FAP2DD-Thr],reduced signal,FAP specificity over PREP,,,
Lys(MethylRed)-D-Tyr-Pro-Ser-Lys(5-FAM)-[Peg2-(D)Lys]3-NH2 [FAP2ED-Tyr],,,,loss of FAP activity,
FAM-Peg2-Gly-Pro-Gly-(D)Pro-(D)Asn-Gln-Lys(MethylRed)-NH2 [FAP1DLi-FAM],,,cleaves; also recorded: partial reduction in activity,lower rate of cleavage; also recorded: FAP activity was significantly reduced,cleavage by rhPREP (rhPREP; listed as FAP1 DLi-FAM): still demonstrated PREP cleavage; cleavage by rhDPPIV (exopeptidase activity) (rhDPPIV): Neither FAP1Li-FAM or FAP1 DLi-FAM are cleaved
CC(C)[C@H](N)C(=O)N1CCC[C@H]1B(O)O [Val-boroPro],,,,,inhibition of FAP3 signal in CAFs [2]: inhibition of signal; inhibition of FAP3 signal in CAFs ([2]; listed as VBP): signal was abrogated; inhibition of FAP3 intensity and lifetime change in NSCLC tissue [3]: inhibition; also recorded: abrogated
MMP-13 (recombinant enzyme),,,,,cleavage of FRET probe by recombinant enzyme (fluorescence) (FAP3): demonstrating no activity
Lys(MethylRed)-(D)Ala-Pro-Ser-Lys(5-FAM)-[Peg2-(D)Lys]3-NH2 [FAP2BD-Ala],reduced signal,FAP specificity over PREP,,,
FAP on cancer associated fibroblasts (CAFs) from NSCLC patient samples,,,,,"cleavage of FRET probe on a CAF monolayer (fluorescence 480/530 nm, one hour) (FAP3): FAP3 was cleaved by FAP^+CAFs, with inhibition of signal when co-incubated with Val-boroPro"
FAM-Peg2-Gly-Pro-Gly-Pro-Asn-Gln-Lys(MethylRed)-NH2 [FAP1Li-FAM],signal intensity of FAP1 is higher,,cleaved more rapidly; also recorded: endopeptidase activity,cleaved rapidly; also recorded: endopeptidase activity,cleavage by rhDPPIV (exopeptidase activity) (rhDPPIV): Neither FAP1Li-FAM or FAP1 DLi-FAM are cleaved; also recorded: did not cleave
